Drawing on patent US20210163624A1, this text covers fluorescence value (FL2-H: PE; statistic not given) for 1 substance.

For assay [1], the target named is RMF peptide (…)/HLA-A0201 complex on the cell surface (human). Kind of assay: flow cytometry, T2 cells pulsed with WT1 (RMF) peptide 50 ug/ml, control mAb at 1 (ug/ml by paragraph 199); secondary alone (T2-WT1-2AB) prints 18. In general terms: Flow cytometry measures light scatter and fluorescence of single cells or particles in a stream.
Assay [2] shares this target. Kind of assay: flow cytometry, T2 cells pulsed with WT1 (RMF) peptide 50 ug/ml, control mAb at 10 (ug/ml by paragraph 199); secondary alone (T2-WT1-2AB) prints 18.
Assay [3] shares this target. Kind of assay: flow cytometry, T2 cells pulsed with WT1 (RMF) peptide 50 ug/ml, control mAb at 0.1 (ug/ml by paragraph 199); secondary alone (T2-WT1-2AB) prints 18.
Assay [4] shares this target. The assay is described as follows: flow cytometry, T2 cells pulsed with WT1 (RMF) peptide 50 ug/ml, control mAb at 0.01 (ug/ml by paragraph 199); secondary alone (T2-WT1-2AB) prints 18.

Turning to Isotype control human IgG1 (antibody), the fluorescence value (FL2-H: PE; statistic not given) in assay [1] stood at 37.9; in assay [2], 31.1; in assay [3], 29.5; in assay [4], 31.8.
